Reference: the supplement of paper PMC7877785
± gives the uncertainty stated by the source.

Assay: self-splicing fitness, log relative to wild type (ln ratio); higher = more splicing; Tetrahymena group I intron in knt gene, E. coli kanamycin selection, DiMSum; sequences stand for … in CUCUCU…GGAGGGAAAAGUUAUCAGGCAUGCACCUGGUAGCUAGUCUUUAAACCAAUAGAUUGCAUCGGUUUAAAAGGCAAGACCGUCAAAUUGCGGGAAAGGGGUCAACAGCCGUUCAGUACCAAGUCUCAGGGGAAACUUUGAGAUGGCCUUGCAAAGGGUAUGGUAAUAAGCUGACGGACAUGGUCCUAACCACGCAGCCAAGUCCUAAGUCAACAGAUCUUCUGUUGAUAUGGAUGCAGUUCACAGACUAAAUGUCGGUCGGGGAAGAUGUAUUCUUCUCAUAAGAUAUAGUCGGACCUCUCCUUAAUGGGAGCUAGCGGAUGAAGUGAUGCAACACUGGAGCCGCUGGGAACUAAUUUGUAUGCGAAAGUAUAUUGAUUAGUUUUGGAGUACUCGUGGUCG
Procedure, shortened: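 Fitness was computed with DiMSum as the error-weighted combination of replicate fold changes, kanamycin versus none, each normalised to wild type. The library randomised all eight intron nucleotides of the P1ex region, with the intron placed in the knt kanamycin-resistance gene on pET-22b(+) in E. coli BL21(DE3). Six replicate transformations were grown overnight at 37°C or 30°C on LB agar with or without 25 μg/mL kanamycin, plus 100 μg/mL carbenicillin, 50 μM IPTG and 0.2% rhamnose. Pooled colonies were amplicon-sequenced on an Illumina HiSeq 2500.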

| Sequence | self-splicing fitness (ln) (30 °C) | self-splicing fitness (ln) (37 °C) |
| --- | --- | --- |
| AUAGAGCAAUAUUACGUCAU | -0.913 ± 0.087 | 0.145 ± 0.1 |
| CGAUAGCAAUAUUACGAGAG | -2.05 ± 0.2 | -2.66 ± 0.26 |
| AUCCAGCAAUAUUACGUCGU | -0.689 ± 0.062 | -0.625 ± 0.077 |
| CUAUAGCAAUAUUACGGGAU | -3.92 ± 0.25 | -0.972 ± 0.16 |
| CUAAAGCAAUAUUACGCGUA | -3.35 ± 0.18 | -2.63 ± 0.21 |
| AAACAGCAAUAUUACGCCUC | -2.55 ± 0.15 | -1.49 ± 0.15 |
| CAUAAGCAAUAUUACGAGCC | -3.21 ± 0.35 | -2.41 ± 0.44 |
| UUGAAGCAAUAUUACGUAUG | -0.752 ± 0.079 | -0.391 ± 0.11 |
| AAUAAGCAAUAUUACGCGCC | -0.204 ± 0.15 | -0.572 ± 0.16 |
| CUUGAGCAAUAUUACGUCGA | -1.25 ± 0.24 | – |
| GGUCAGCAAUAUUACGCUGA | -3.21 ± 0.44 | -1.95 ± 0.32 |
| UCAUAGCAAUAUUACGGCAG | -1.31 ± 0.15 | -1.07 ± 0.15 |
| CCAUAGCAAUAUUACGUAUC | -2.32 ± 0.15 | -2.01 ± 0.31 |
| UGCUAGCAAUAUUACGCUGU | -3.58 ± 0.22 | -2.38 ± 0.27 |
| GCUGAGCAAUAUUACGUUAU | -2.96 ± 0.25 | -2.33 ± 0.28 |
| ACUGAGCAAUAUUACGAAAC | -4.21 ± 0.42 | -1.42 ± 0.38 |
| ACGAAGCAAUAUUACGGCGG | -0.224 ± 0.089 | 0.0437 ± 0.13 |
| GGCCAGCAAUAUUACGUGCC | -3 ± 0.15 | -0.478 ± 0.24 |
| AGGGAGCAAUAUUACGCUUG | -1.95 ± 0.27 | – |
| CUUCAGCAAUAUUACGAUCA | – | -1.38 ± 0.32 |
| ACUAAGCAAUAUUACGAUGA | -0.267 ± 0.068 | -0.253 ± 0.076 |
| CACCAGCAAUAUUACGUUCU | -3.76 ± 0.17 | -2.65 ± 0.14 |
| CCCCAGCAAUAUUACGUCCC | -2.21 ± 0.36 | – |
| UCCUAGCAAUAUUACGAAAA | -2.7 ± 0.43 | – |
| AAGUAGCAAUAUUACGGUUA | -0.841 ± 0.087 | -0.334 ± 0.085 |
| CCUCAGCAAUAUUACGGCUC | -2.77 ± 0.16 | -2.46 ± 0.29 |

| Sequence | self-splicing fitness (ln) (30 °C) | self-splicing fitness (ln) (37 °C) |
| --- | --- | --- |
| AUCGAGCAAUAUUACGAUGU | -2.9 ± 0.12 | -1.76 ± 0.11 |
| UGCAAGCAAUAUUACGUCGC | -2.86 ± 0.43 | -2.36 ± 0.49 |
| GACAAGCAAUAUUACGCGCU | -1.29 ± 0.058 | -0.594 ± 0.073 |
| CUUGAGCAAUAUUACGCAUA | -3.01 ± 0.36 | – |
| ACUAAGCAAUAUUACGCAGA | -1.89 ± 0.092 | -1.5 ± 0.083 |
| AGGGAGCAAUAUUACGGUGG | -3.72 ± 0.27 | -3.79 ± 0.36 |
| UGUUAGCAAUAUUACGGACC | 0.127 ± 0.12 | 0.443 ± 0.16 |
| UAAAAGCAAUAUUACGGCAC | -1.64 ± 0.14 | -1.13 ± 0.2 |
| GAUAAGCAAUAUUACGCCAC | -3.11 ± 0.44 | -2.13 ± 0.36 |
| AACAAGCAAUAUUACGGCAG | -1.53 ± 0.11 | -1.4 ± 0.13 |
| AGGAAGCAAUAUUACGGUUG | -3.3 ± 0.17 | -2.23 ± 0.16 |
| ACGAAGCAAUAUUACGGGGG | -2.58 ± 0.15 | -2.27 ± 0.25 |
| GGAAAGCAAUAUUACGAAGC | -1.07 ± 0.34 | -1.43 ± 0.34 |
| GAGAAGCAAUAUUACGUCGG | -3.32 ± 0.19 | -2.35 ± 0.24 |
| UCCAAGCAAUAUUACGUCGC | -3.47 ± 0.21 | -3.12 ± 0.28 |
| AUCGAGCAAUAUUACGCUCG | -2.72 ± 0.35 | – |
| GAAUAGCAAUAUUACGACGG | -3.32 ± 0.36 | -1.1 ± 0.19 |
| UAGGAGCAAUAUUACGGGAC | -3.63 ± 0.4 | -2.85 ± 0.47 |
| CACGAGCAAUAUUACGGUAC | -2.69 ± 0.21 | -2.81 ± 0.3 |
| AGGGAGCAAUAUUACGGGGU | -3.27 ± 0.36 | -3.01 ± 0.31 |
| UCUGAGCAAUAUUACGGGAC | -2.86 ± 0.4 | -2.37 ± 0.23 |
| ACGCAGCAAUAUUACGGGGG | -3.86 ± 0.2 | -2.54 ± 0.19 |
| CGGUAGCAAUAUUACGCUAG | -2.28 ± 0.34 | -0.219 ± 0.24 |
| UGCAAGCAAUAUUACGAAAG | -2.6 ± 0.12 | -1.53 ± 0.13 |
| UCAUAGCAAUAUUACGAACA | -1.78 ± 0.17 | -0.838 ± 0.16 |
| UUAUAGCAAUAUUACGUAGG | -1.75 ± 0.14 | -0.198 ± 0.17 |

| Sequence | self-splicing fitness (ln) (30 °C) | self-splicing fitness (ln) (37 °C) |
| --- | --- | --- |
| CUUUAGCAAUAUUACGCCUG | -0.484 ± 0.11 | -0.204 ± 0.14 |
| UGGCAGCAAUAUUACGCAGG | -2.79 ± 0.16 | -1.23 ± 0.12 |
| AGAUAGCAAUAUUACGCCGA | -1.89 ± 0.3 | -0.973 ± 0.3 |
| AGUCAGCAAUAUUACGUCAU | -0.181 ± 0.072 | -0.133 ± 0.09 |
| AACCAGCAAUAUUACGAAGG | -3.19 ± 0.23 | -1.8 ± 0.22 |
| UUCUAGCAAUAUUACGAAGU | – | -0.603 ± 0.25 |
| UGGGAGCAAUAUUACGAUGA | – | -1.63 ± 0.42 |
| UACCAGCAAUAUUACGUAGG | -3.19 ± 0.2 | -2.74 ± 0.24 |
| AAUAAGCAAUAUUACGGGCA | -0.69 ± 0.1 | -0.292 ± 0.11 |
| AGUGAGCAAUAUUACGUAAG | -3.1 ± 0.43 | -2.48 ± 0.41 |
| CCUUAGCAAUAUUACGCACG | -2.02 ± 0.35 | – |
| GUCAAGCAAUAUUACGGAUU | -2.73 ± 0.12 | -1.12 ± 0.12 |
| GCACAGCAAUAUUACGCUCU | -0.938 ± 0.091 | -0.131 ± 0.1 |
| CCUCAGCAAUAUUACGCUGA | -2.75 ± 0.35 | -3.12 ± 0.47 |
| GCGAAGCAAUAUUACGUUUA | -2.57 ± 0.14 | -1.32 ± 0.11 |
| CACAAGCAAUAUUACGCUCG | -0.562 ± 0.089 | -0.27 ± 0.092 |
| CCAAAGCAAUAUUACGCGGA | -3.47 ± 0.22 | -2.76 ± 0.3 |
| AUGCAGCAAUAUUACGCCGA | -1.55 ± 0.14 | -0.543 ± 0.17 |
| CACUAGCAAUAUUACGAGUU | -1.83 ± 0.085 | -0.633 ± 0.093 |
| CGCCAGCAAUAUUACGUGUA | -3.04 ± 0.097 | -1.04 ± 0.072 |
| GGAAAGCAAUAUUACGUCGA | -1.84 ± 0.092 | -0.528 ± 0.12 |
| CGUAAGCAAUAUUACGUGCU | -3.24 ± 0.21 | -1.94 ± 0.21 |
| CCCGAGCAAUAUUACGGGGG | -3.59 ± 0.16 | -2.89 ± 0.27 |
| GCUUAGCAAUAUUACGGUGU | -0.596 ± 0.052 | -0.0556 ± 0.068 |
| CUAUAGCAAUAUUACGCUGC | -3.11 ± 0.36 | – |
| GGUAAGCAAUAUUACGACGC | 0.697 ± 0.17 | 0.22 ± 0.21 |
